Reference: patent publication US20060034863A1 (CHEMOCENTRYX, published 2006)

Legend:
[1] = molecular target: MIP-1α binding sites on human monocytes (human); assay: displacement of 125I-MIP-1α from human monocytes, filter binding
[2] = molecular target: T1, human chemokine receptor CCR1 (human, UniProt P32246 1-355); assay: displacement of 125I-MIP-1α from HEK293-CCR1 cells, filter binding, 3 h at 4°C
T1 construct: whole, on cells; also called HEK293-CCR1 transfectants
T1 sequence (looked up): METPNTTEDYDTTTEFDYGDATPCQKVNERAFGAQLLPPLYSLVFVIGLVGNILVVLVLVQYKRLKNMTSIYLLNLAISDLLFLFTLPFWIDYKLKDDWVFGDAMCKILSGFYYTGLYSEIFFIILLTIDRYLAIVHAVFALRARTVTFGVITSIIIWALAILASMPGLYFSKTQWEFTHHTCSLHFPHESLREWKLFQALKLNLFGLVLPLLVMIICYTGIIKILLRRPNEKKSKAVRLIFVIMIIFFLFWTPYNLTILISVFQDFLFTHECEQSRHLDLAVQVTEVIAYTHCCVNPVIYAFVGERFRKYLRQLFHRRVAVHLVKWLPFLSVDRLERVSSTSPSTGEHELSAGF
Method: (§1) The binding characteristics of CCL23 variants was compared in human CCR1 expressing cells. […] Reactions mixtures were aspirated onto PEI-treated GF/B glass filters using a cell harvester (Packard). The filters were washed twice (25 mM HEPES, 500 mM NaCl, 1 mM CaCl₂, 5 mM MgCl₂, adjusted to pH 7.1). Scintillant (MicroScint-10; 35 μl) was added to dried filters and the filiters counted in a Packard Topcount scintillation counter. Data were analyzed and plotted using Prism software (GraphPad Software, San Diego, Calif.).

[3] = molecular target: T2, formyl peptide receptor like 1 (FPRL1) (human, UniProt P25090 1-351); assay: 125I-WKYMVm displacement on FPRL1-L1.2 transfectants and human monocytes
T2 construct: whole, on cells; also called FPRL1-L1.2 transfectants; L1.2 FPRL1 Cells
T2 sequence (looked up): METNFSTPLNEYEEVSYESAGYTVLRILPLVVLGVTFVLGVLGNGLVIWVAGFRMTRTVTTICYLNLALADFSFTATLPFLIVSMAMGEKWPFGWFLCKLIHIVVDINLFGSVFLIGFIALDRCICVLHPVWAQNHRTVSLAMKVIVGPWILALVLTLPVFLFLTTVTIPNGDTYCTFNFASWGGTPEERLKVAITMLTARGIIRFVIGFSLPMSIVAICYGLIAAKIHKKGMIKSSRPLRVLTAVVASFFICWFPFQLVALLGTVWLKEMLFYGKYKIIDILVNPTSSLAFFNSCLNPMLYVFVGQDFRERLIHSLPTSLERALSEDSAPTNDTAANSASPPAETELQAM
Source text: (§2) The IC50 for each interaction was derived from non-linear least squares curve fitting of the data by using Prism software (GraphPad Software).

[4] = molecular target: T2, formyl peptide receptor like 1 (FPRL1); assay: cell-based or functional assay
[5] = molecular target: T1, human chemokine receptor CCR1; assay: displacement of 125I-MIP-1α from HEK293-CCR1 cells
Method: as §1

[6] = molecular target: T2, formyl peptide receptor like 1 (FPRL1); assay: displacement of 0.01 nM 125I-WKYMVm from L1.2 FPRL1 cells, 3 h at 4°C
Source text: as §2

[7] = molecular target: MIP-1α binding sites on human monocytes (human); assay: 125I-MIP-1α competition binding on human monocytes against HEK293-CCR1 cells
[8] = molecular target: T2, formyl peptide receptor like 1 (FPRL1); assay: cell-based or functional assay; remark: listed apart in the source
[9] = molecular target: T2, formyl peptide receptor like 1 (FPRL1); assay: displacement of 0.01 nM 125I-WKYMVm from human monocytes, 3 h at 4°C
Source text: as §2

B1: MIP-1α (ligand, human, UniProt P10147 27-92, looked up)
chain: ADTPTACCFSYTSRQIPQNFIADYFETSSQCSKPGVIFLTKRSRQVCADPSEEWVQKYVSDLELSA
notes: also called macrophage inflammatory protein
IC50 [1]: 0.27 nM
IC50 [2]: 0.54 nM

B2: CKβ8-1(1-116) (ligand)
chain: RVTKDAETEFMMSKLPLENPVLLDMLWRRKIGPQMTLSHAAGFHATSADCCISYTPRSIPCSLLESYFETNSECSKPGVIFLTKKGRRFCANPSDKQVQVCMRMLKLDTRIKTRKN
notes: Human recombinant chemokine bought from R&D Systems; also called CCL23 variant
IC50 [1]: 55 nM
binding result [3]: no binding
IC50 [2]: 206 nM

B3: SHAAGtide (SEQ ID NO: 1) (peptide)
peptide: MLWRRKIGPQMTLSHAAG
Induction of Calcium Flux in FPRL1 L1.2 Cells (IC 50) [4]: 150 nM

B4: CKβ8(25-99) (ligand)
chain: RFHATSADCCISYTPRSIPCSLLESYFETNSECSKPGVIFLTKKGRRFCANPSDKQVQVCMRMLKLDTRIKTRKN
notes: Human recombinant chemokine bought from R&D Systems; also called CCL23 variant; CKβ (25-99)
IC50 [1]: 0.25 nM
binding result [3]: no binding
fold IC50 change against CKβ8(1-99) [5]: 40 fold
IC50 [2]: 1.34 nM

B5: SHAAGtide truncated variant CCXP5 (SEQ ID NO: 5) (peptide)
peptide: MLWRRKIGPQMT
Induction of Calcium Flux in FPRL1 L1.2 Cells (IC 50) [4]: 7.4 nM

B6: SHAAGtide truncated variant CCXP2 (SEQ ID NO: 2) (peptide)
peptide: RRKIGPQMTLSHAAG
Induction of Calcium Flux in FPRL1 L1.2 Cells (IC 50) [4]: > 50000 nM

B7: SHAAGtide truncated variant CCXP3 (SEQ ID NO: 3) (peptide)
peptide: MLWRRKIGPQMTLSH
Induction of Calcium Flux in FPRL1 L1.2 Cells (IC 50) [4]: 68 nM

B8: SHAAGtide truncated variant CCXP8 (SEQ ID NO: 8) (peptide)
peptide: MLWRRKIGPQM
Induction of Calcium Flux in FPRL1 L1.2 Cells (IC 50) [4]: 45 nM

B9: CKβ8(1-99) (ligand)
chain: RVTKDAETEFMMSKLPLENPVLLDRFHATSADCCISYTPRSIPCSLLESYFETNSECSKPGVIFLTKKGRRFCANPSDKQVQVCMRMLKLDTRIKTRKN
notes: Human recombinant chemokine bought from R&D Systems; also called CCL23 variant; CKβ (1-99)
IC50 [1]: 10.3 nM
binding result [3]: no binding
IC50 [2]: 64 nM

B10: CKβ8-1(25-116) (ligand)
chain: MLWRRKIGPQMTLSHAAGFHATSADCCISYTPRSIPCSLLESYFETNSECSKPGVIFLTKKGRRFCANPSDKQVQVCMRMLKLDTRIKTRKN
notes: Human recombinant chemokine bought from R&D Systems; NH2-terminal truncated form of CKβ8-1; also called CCL23 variant
IC50 [6]: 196 nM
fold higher MIP-1α displacement activity on monocytes than on HEK293-CCR1 cells [7]: > 10 fold
IC50 [1]: 5.1 nM
fold IC50 change against CKβ8-1(1-116) [5]: 1 fold
EC50 of calcium flux dose response in FPRL1-L1.2 transfectants [8]: 10 to 20 nM
IC50 [2]: 112 nM
IC50 [9]: 31 nM
Induction of Calcium Flux in FPRL1 L1.2 Cells (IC 50) [4]: 11 nM

B11: SHAAYtide (SEQ ID NO: 6) (peptide)
peptide: MLWRRKIGPQMTLSHAAY
Induction of Calcium Flux in FPRL1 L1.2 Cells (IC 50) [4]: 38 nM
